Test results reported in patent US20130109048A1, “METHOD FOR IN-VITRO MONITORING OF NEURONAL DISORDERS AND USE THEREOF” (ECOLE POLYTECHNIQUE FEDERALE DE LAUSANNE (EPFL), priority 2010, published 2013).
Entries after “also recorded” stand apart in the source; their conditions may differ.

Key:
[1] = system: rat primary cortical neurons; assay: Neuronal viability by counts of NeuN-positive nuclei; format: cell-based; details: cultures treated with K252a 10 nM or 100 nM
Procedure: Cultures were washed with PBS and fixed in 4% paraformaldehyde (Fluka/Sigma, Buchs, Switzerland) or in methanol (Merck, Germany) for PSD95 (Post-synaptic density protein of 95 kDa) staining for 10 min at 4° C. Cultures were incubated with NeuN antibody which reacts with fox-3 (1:500, Chemicon, Temecula, Calif.) or 2B4 antibody which reacts with huntingtin (1:500 Millipore, Zug, Switzerland), antibody which reacts with postsynaptic density protein of 95 kDa (PSD95) (Sans et al., 2000, J. Neurosci. 20:1260-71) (1:200, Affinity Bioreagents, Golden, Colo.) and antibody which reacts neuronal class III beta-tubulin Tuj1 (Jepsen et al., 2000, Cell 102(6): 753-763) (1:2000, Covance, Emerville, Calif.) in PBS containing 10% normal goat serum (NGS, Gibco, Invitrogen, Basel, Switzerland) and 0.1% Triton X-100 (TX, Fluka, Sigma, Buchs, Switzerland). Cultures were rinsed three times in PBS and then incubated for 1 hour with fluorescent goat anti-mouse secondary antibodies (for NeuN: 1:1000 Cy3-conjugated antibody from Jackson Immunoresearch Laboratories, WestGrove, Pa.; for 2B4: 1:1000 Alexa Fluor® 488-conjugated antibodies from Invitrogen, Basel, Switzerland, for Tuj1: 1:1000 Alexa Fluor® 594-conjugated antibody from Invitorgen, Basel, Switzerland). Where indicated, cultures were stained with Hoechst 33342 dye (Invitrogen, Basel, Switzerland). […]

[2] = system: rat primary cortical neurons; assay: MEA recording of spontaneous electrical activity (population bursts), TrkB inhibitor experiments; format: cell-based; details: K252a 10 nM or 100 nM; 30 min recordings 45 min and 24 h after addition; cultures at 14-15 DIV
Procedure: Cortical cells were prepared and cultured as described previously (Van Pelt et al., 2004, IEEE Trans. Biomed. Eng., 51: 2051-2062). Cells were plated on multielectrode arrays (MEAs) and/or culture dishes, with prior surface coating by polyethylenimine (10 mg/ml, Fluka) and laminin (0.02 mg/ml, Gibco) in Neurobasal medium (MEAs) or poly-L-lysine (0.01%) in water (culture dishes), respectively, which allow the cells to readily attach to the surface and extend neurites. Plating density was 1′500 cells/mm^2 for MEAs, allowing for quick network formation and high multichannel electrophysiological recordings efficiency. A lower density of 500 cells/mm^2 was used for culture dishes, to facilitate cell counting and morphological analysis. […]
After 5 min of accommodation time following the mounting of each MEA inside the recording setup, spontaneous electrical activity from the cultured neurons was detected, amplified, and recorded at each of the 60 substrate extracellular electrodes simultaneously for 30 min at 20 kHz/channel. Recorded traces consisted in electric voltage signals whose sudden small large amplitude fluctuations are known to be produced by the nerve impulse discharges emitted by neurons growing in close proximity to the substrate electrodes that detect them extracellularly, directly related to the firing of action potentials by the neurons in the proximity of each electrode. […]

[3] = system: htt171-82Q-expressing cortical cells; assay: MEA recording of spontaneous electrical activity in Huntington's disease cell model with BDNF; format: cell-based, rat; details: BDNF 50 ng/ml added twice weekly
Description: Cells modeling in-vitro HD-related cortical dysfunction were engineered for use in a method according to the invention for showing that the effects of molecular changes on synaptic changes in cortical microcircuits exposed to mutant htt fragments could be measured by a method according to the invention. To this end, cortical cells E16-E19 Wistar rat embryos (Charles River, France) were engineered by lentiviral gene transfer using Human Immunodeficiency Virus Type 1 (HIV-1)-derived vectors to express the first 171 amino acids of normal or mutated htt under the control of a tetracycline response element-containing promoter as described in Rudinskiy et al., 2009, J. Neurochem., 111: 460-472 (FIGS. 1A,B) to achieve high transduction efficiency and high levels of transgene expression in rat primary cortical neurons following the protocol below.
Plasmids encoding the first 171 amino acids of mutated htt (htt171-82Q) (FIG. 6, SEQ ID NO: 14) or wild-type htt (htt171-18Q) (FIG. 6, SEQ ID NO: 15) under the control of a tetracycline-regulated element promoter, or the tetracycline-regulatable transactivator (tTA1) under the control of a phosphoglycerate kinase promoter were used to prepare self-inactivating lentiviral vectors (FIG. 1A) as described previously (Regulier et al., 2003, Hum. Mol. Genet., 12: 2827-2836). Lentiviral particles were re-suspended in phosphate-buffered saline (PBS)+1% bovine serum albumin and the particle content of viral batches was assessed by p24 ELISA (RETROtek, Gentaur, Paris, France) (Viral titering involves capture of p24 viral protein from the sample on a microtiter plate and detection with a second anti-p24 antibody and visualization via a colorimeteric horseradish-generated product detected at 450 nm) Cells were plated as described below. On the day following cell plating, cultures were infected with lentiviruses at ratios of 150 ng p24/1000 cells (tTA1) and 120 ng p24/1000 cells (htt171-82Q or htt171-18Q) (FIG. 1B).
Cortical cells were prepared and cultured as described previously (Van Pelt et al., 2004, IEEE Trans. Biomed. Eng., 51: 2051-2062). Cells were plated on multielectrode arrays (MEAs) and/or culture dishes, with prior surface coating by polyethylenimine (10 mg/ml, Fluka) and laminin (0.02 mg/ml, Gibco) in Neurobasal medium (MEAs) or poly-L-lysine (0.01%) in water (culture dishes), respectively, which allow the cells to readily attach to the surface and extend neurites. Plating density was 1′500 cells/mm^2 for MEAs, allowing for quick network formation and high multichannel electrophysiological recordings efficiency. A lower density of 500 cells/mm^2 was used for culture dishes, to facilitate cell counting and morphological analysis. Medium containing Neurobasal, 2% B-27 supplement (GIBCO, Invitrogen Corporation, ref 17504) and 10% horse serum (from GIBCO, Invitrogen Corporation, ref. 16050-130) was changed three times per week by removing 0.7 ml and adding 1 ml of fresh medium. Where indicated, recombinant human BDNF (R&D Systems, Minneapolis, Minn., USA) at a concentration of 50 ng/ml was added to the medium twice a week starting from in vitro day 4.
Commercial MEAs with planar TiN substrate electrodes (MultichannelSystems, Reutlingen, Germany) such as described in Potter and De Marse, 2001, above were employed for recording over long-term experiments the spontaneous electrical activity of mammalian neurons, maintained under healthy conditions ex-vivo. […]

[4] = system: htt171-82Q-expressing cortical cells; assay: Counting of PSD95-positive plasma membrane subdomains (punctae) by immunostaining; format: cell-based, rat; details: BDNF 50 ng/ml added twice weekly; htt171-82Q cells
Procedure: Cultures were washed with PBS and fixed in 4% paraformaldehyde (Fluka/Sigma, Buchs, Switzerland) or in methanol (Merck, Germany) for PSD95 (Post-synaptic density protein of 95 kDa) staining for 10 min at 4° C. Cultures were incubated with NeuN antibody which reacts with fox-3 (1:500, Chemicon, Temecula, Calif.) or 2B4 antibody which reacts with huntingtin (1:500 Millipore, Zug, Switzerland), antibody which reacts with postsynaptic density protein of 95 kDa (PSD95) (Sans et al., 2000, J. Neurosci. 20:1260-71) (1:200, Affinity Bioreagents, Golden, Colo.) and antibody which reacts neuronal class III beta-tubulin Tuj1 (Jepsen et al., 2000, Cell 102(6): 753-763) (1:2000, Covance, Emerville, Calif.) in PBS containing 10% normal goat serum (NGS, Gibco, Invitrogen, Basel, Switzerland) and 0.1% Triton X-100 (TX, Fluka, Sigma, Buchs, Switzerland). […]
The synaptic status was investigated in htt171-82Q- and htt171-18Q-expressing cells. Numbers of PSD95-positive structures was quantified as described above as an indicator of postsynaptic specializations, which comprise zones where neurotransmitter receptors, particularly glutamate receptors, are clustered.

[5] = compared to non-BDNF-treated htt171-82Q sister cultures, 23 days in vitro

Molecule	neuronal viability (NeuN counts) [1]	PB (population burst) firing [2]	PB frequencies [3, 5]	inter-burst intervals (IBIs) [3, 5]	PB duration distribution ([3]; htt171-82Q cells)	size of individual PBs (numbers of individual action potentials) ([3]; htt171-82Q cells)	number of total spikes ([3]; htt171-82Q cells, 30 min recording)	PSD95-positive bouton-like plasma membrane subdomains (punctae) [4]
COC(=O)[C@@]1(O)C[C@H]2O[C@]1(C)n1c3ccccc3c3c4c(c5c6ccccc6n2c5c31)C(=O)NC4 [TrkB inhibitor, K252a]	without influencing neuronal viability	dose- and time-dependent loss of PB firing						
BDNF: recombinant human brain-derived neurotrophic factor (R&D Systems) (protein, UniProt P23560 19-247, looked up) Neurotrophic factor BDNF …: APMKEANIRGQGGLAYPGVRTHGTLESVNGPKAGSRGLTSLADTFEHVIEELLDEDQKVRPNEENNKDADLYTSRVMLSSQVPLEPPLLFLLEEYKNYLDAANMSMRVRRHSDPARRGELSVCDSISEWVTAADKKTAVDMSGGTVTVLEKVPVSKGQLKQYFYETKCNPMGYTKEGCRGIDKRHWNSQCRTTQSYVRALTMDSKKRIGWRFIRIDTSCVCTLTIKRGR			significantly increased PB frequencies	decreased IBIs	extended to both the IBI and duration distributions	did not completely restore the size of individual PBs	number of total spikes remained lower	increase PSD95-positive boutons; also recorded: reversed by BDNF treatment
